{"source": "patent US20030163846A1", "about": "“Process for the genetic modification of a plant” (priority 2000, published 2003)", "molecules": {"B1": {"name": "AtSUT4: saccharose transporter SUT4 from Arabidopsis thaliana, amino acid sequence SEQ ID no. 5 (protein, listed as Arabidopsis thaliana)", "chain": "MATSDQDRRHRATRNRPPIPRPSNSSSRPVVPPPRSKVSKRVLLRVASVACGIQFGWALQLSLLTPYVQELGIPHAWASVIWLCGPLSGLFVQPLVGHSSDRCTSKYGRRRPFIVAGAVAISISVMVIGHAADIGWAFGDREGKIKPRAIVAFVLGFWILDVANNMTQGPCRALLADLTENDNRRTRVANGYFSLFMAVGNVLGYATGSYNGWYKIFTFTKTVACNVECANLKSAFYIDVVFIAITTILSVSAAHEVPLASLTSEAHGQTSGTDEAFLSEIFGTFRYFPGNVWIILLVTALTWIGWFPFILFDTDWMGREIYGGEPNIGTSYSAGVSMGALGLMLNSVFLGITSVLMEKLCRKWGAGFVWGISNILMAICFLGMIITSFVASHLGYIGHEQPPASIVFAAVLIFTILGIPLAITYSVPYALISIRIESLGLGQGLSLGVLNLAIVIPQVIVSVGSGPWDQLFGGGNSPALAVGAATGFIGGIVAILALPRTRIQKPIPLP"}}, "key": {"[1]": {"assay": "yeast growth on a saccharose medium (SUSY7/ura3)", "assay_type": "cell-based", "conditions": "2% saccharose medium, pH 5.0", "protocol": "(§1) The yeast strain SUSY7/ura3 is a modified version of SUSY7 (Riesmeier et al., EMBO J. (1992) 11, 4705-4713), which contains a deletion of a portion of the URA3 gene and, as a result, permits selection for uracil auxotrophy. Media that contained the 1.7 g/L yeast nitrogen base without amino acids (Difco), 2% saccharose, 20 mg/L tryptophane, and 1.5% agarose, pH 5.0, were used to analyze yeast growth on a saccharose medium.\n(§2) For the saccharose uptake tests, yeast was cultivated in a liquid minimal medium containing glucose, up to an OD623 of approximately 0.8. Cells were collected by means of centrifugation, washed in 25 mM sodium phosphate buffer (pH 5.5), and suspended in the same buffer at an OD623 of 20. The uptake tests were initiated by adding glucose ending at a final concentration of 10 mM to the yeast cells one minute before adding ^14C-saccharose. Following incubation at 30° C. while stirring, cells were collected by means of vacuum filtration on fiberglass filters (1-5 minutes), washed twice with 4 mL 10 mM saccharose (at the freezing point), and the radioactivity was determined using a liquid scintillation counter. […] A significant difference compared with the vector controls is apparent."}, "[2]": {"assay": "14C-saccharose uptake tests in yeast expressing SUT4 (SUSY7/ura3)", "assay_type": "cell-based", "conditions": "for Km: Michaelis-Menten nonlinear regression", "protocol": "as §1, §2\nData for the kinetic analysis were obtained for SUT4 from a nonlinear regression of the uptake measurements using the Michaelis-Menten equation. Km was represented as an average of eight determinations using three independent transformants±standard deviation. The KM value for saccharose that was determined was 11.6±0.6 mM (at a pH of 5.5) and 5.9±0.8 mM (at a pH of 4.0) for SUT4 from arabidopsis. For SUT4 from Solanum tuberosum the KM value was 6.0±1.2 mM (pH 4.0) (see FIG. 5B)."}}}
{"molecule": "B1", "values": [{"measurement": "yeast growth on saccharose", "setting": "[1]", "result": "permitted yeast to grow on saccharose"}, {"measurement": "functional saccharose transporter (uptake of 14C-saccharose vs vector controls)", "setting": "[2]; FIG. 5A", "result": "functional saccharose transporters"}, {"measurement": "Km", "setting": "[2]; pH 4.0, average ± standard deviation", "result": "5.9 ± 0.8", "unit": "mM"}, {"measurement": "Km", "setting": "[2]; pH of 5.5, average of eight determinations ± standard deviation", "result": "11.6 ± 0.6", "unit": "mM"}]}
